Assay [1] addresses T1, Soluble CD22 (PeproTech) (human, UniProt P20273 20-687, limits assumed).
T1 construct: Bought from PeproTech; also called sCD22; soluble CD22 purified from mammalian cells
T1 sequence: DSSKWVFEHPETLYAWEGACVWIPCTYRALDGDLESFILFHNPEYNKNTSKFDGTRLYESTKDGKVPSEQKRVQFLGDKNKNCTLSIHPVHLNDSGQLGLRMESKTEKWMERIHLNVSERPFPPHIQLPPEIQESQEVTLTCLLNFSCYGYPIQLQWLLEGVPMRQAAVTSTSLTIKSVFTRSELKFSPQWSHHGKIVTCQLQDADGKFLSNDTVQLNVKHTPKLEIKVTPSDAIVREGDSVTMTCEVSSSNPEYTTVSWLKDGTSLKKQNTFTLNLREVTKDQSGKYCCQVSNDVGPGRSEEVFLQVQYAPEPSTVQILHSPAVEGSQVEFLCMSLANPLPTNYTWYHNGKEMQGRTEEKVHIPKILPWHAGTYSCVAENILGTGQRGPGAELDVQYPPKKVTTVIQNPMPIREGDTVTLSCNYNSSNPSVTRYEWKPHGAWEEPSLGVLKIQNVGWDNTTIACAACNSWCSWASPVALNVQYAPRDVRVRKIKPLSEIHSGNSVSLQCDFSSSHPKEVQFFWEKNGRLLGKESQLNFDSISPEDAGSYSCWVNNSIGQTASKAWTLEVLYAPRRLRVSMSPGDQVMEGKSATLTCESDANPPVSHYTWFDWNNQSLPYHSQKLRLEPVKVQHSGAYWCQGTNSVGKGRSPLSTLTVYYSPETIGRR
Put plainly: ELISA, Fab on coated soluble CD22.
Procedure: (§1) CD22 or CD22-Fc in PBS was coated to a 96-well plate overnight at 4° C. The plate was then washed with PBST (PBS+0.05% Tween) and blocked with PBST supplemented with 5% dry milk. Fab, scFv or IgG1 diluted in PBST+milk was added to the wells. The Fab and scFv binding was detected using the anti-His-IgG-HRP (Qiagen) and the IgG1 binding was detected using the anti-human Fc-IgG-HRP (Sigma, St. Louis, Mo.). After washing, ABTS substrate (Roche, Mannheim, Germany) was added to each well and OD₄₀₅ was recorded after five to ten minutes.

Assay [2] concerns the target T1, Soluble CD22 (PeproTech). Put plainly: ELISA, Fab on coated soluble CD22; reference Fab m971. In general terms: An ELISA detects its analyte on a solid surface through an enzyme-linked reagent.
In assay [3] the target is T2, native, cell surface-associated CD22 on B lymphoma cell lines (Raji, BJAB, ST486) (human, UniProt P20273 20-847).
T2 construct: Endogenous CD22 of Raji, BJAB and ST486 cells; the cell line is named under assay; also called cell surface CD22; cell-associated CD22
T2 sequence: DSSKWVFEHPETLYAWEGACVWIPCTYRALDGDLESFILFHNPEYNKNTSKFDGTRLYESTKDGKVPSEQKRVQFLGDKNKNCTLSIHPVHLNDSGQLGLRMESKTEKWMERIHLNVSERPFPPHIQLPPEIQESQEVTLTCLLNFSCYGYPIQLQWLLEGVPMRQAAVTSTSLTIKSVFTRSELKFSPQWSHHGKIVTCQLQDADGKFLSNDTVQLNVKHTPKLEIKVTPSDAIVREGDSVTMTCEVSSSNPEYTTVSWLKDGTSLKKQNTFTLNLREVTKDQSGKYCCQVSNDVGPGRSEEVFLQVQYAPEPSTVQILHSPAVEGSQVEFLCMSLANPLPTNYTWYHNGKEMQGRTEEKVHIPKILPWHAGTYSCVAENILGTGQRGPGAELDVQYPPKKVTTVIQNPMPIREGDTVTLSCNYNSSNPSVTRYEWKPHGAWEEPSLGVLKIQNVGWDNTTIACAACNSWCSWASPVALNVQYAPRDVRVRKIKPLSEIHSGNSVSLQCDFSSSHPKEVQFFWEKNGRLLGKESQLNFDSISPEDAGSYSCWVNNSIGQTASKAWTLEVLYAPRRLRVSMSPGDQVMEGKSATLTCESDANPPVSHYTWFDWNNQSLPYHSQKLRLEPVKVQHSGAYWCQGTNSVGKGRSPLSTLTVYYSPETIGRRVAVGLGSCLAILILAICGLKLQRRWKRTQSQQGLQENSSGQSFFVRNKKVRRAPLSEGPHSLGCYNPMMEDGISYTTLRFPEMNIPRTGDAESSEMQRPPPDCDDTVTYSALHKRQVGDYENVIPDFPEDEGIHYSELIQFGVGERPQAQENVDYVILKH
Put plainly: flow cytometry titration on BJAB cells, apparent affinity from median fluorescence against concentration.
Procedure: SupT1, Raji, BJAB, and ST486 cells in suspension culture were collected by centrifugation and then re-suspended in ice-cold RPMI+10% FBS medium at a density of 1×10⁶/ml. ScFv or IgG1 at different concentrations were added to the cells. Cells were left on ice for half an hour before being washed with the same complete RPMI medium. […] For IgG1, anti-human-IgG-FITC was added to the cells. The cells were then washed with RPMI medium twice and re-suspended in PBS and subjected to flow cytometry analysis using the FACSCalibur™ (Becton Dickinson, San Jose, Calif.)
The binding characteristics of the two IgGs to cell surface-associated CD22 was further analyzed by using increasing concentrations of both IgGs against BJAB cells in a flow cytometry assay.

Assay [4] addresses T1, Soluble CD22 (PeproTech). Put plainly: ELISA, IgG1 on coated soluble CD22.
Procedure: as §1

A value given as a limit tells only on which side of the number the result lay.

B1: Fab m972 (Fab, V domains shown)
VH: EVQLVQSGGGVVRPGGSLRLPCAASGFTFDDYGMSWVRQAPGKGLEWVSGINWNGGSTGYADSVKGRFTISRDNAKNSLYLQMNSLRAEDTALYHCARGGDDAFDIWGQGTMVTVSS
VL: RIVMTQSPGTLSVSPGETATLSCRASQSFSNMLAWYQQKSGQPPRLLIYGVSTRAAGVPARFSGSGSGTEFTLTISNLQSEDFAVYYCQQYGDWPRYTFGQGTKVERKR
notes: Human Fab from a naive Fab phage library, expressed in E. coli HB2151; also called m972 Fab
With B1, the concentration for a half-maximal effect (EC50) (commonly the concentration needed to bring the measured effect to its halfway point) with Soluble CD22 (PeproTech) [1] was determined as 2 nM. In the assay with Soluble CD22 (PeproTech) [2], the “fold better binding than m971” value is 10 fold.

B2: IgG1 m972 (antibody, V domains shown)
VH: B1 VH
VL: B1 VL
notes: IgG1 format made by moving the heavy and light chains of the clone into pDR12, expressed in 293 free style cells; also called m972 IgG1; not shown: rest of the human IgG1 heavy chain constant region from vector pDR12
For B2, in assay [3], the Kd is ~15 nM. Besides, the EC50 in the assay with Soluble CD22 (PeproTech) [4] is < 1 nM.

The record behind these values is patent publication US20110020344A1 (US Dept. of Health and Human Services, published 2011).
